From PMC2709225 (Nature structural & molecular biology, 2009)

Biological target: the molecule itself
Assay: SEC-MALS

B1: stabilised full-length ectodomain of human hedgehog-interacting protein HIP (eHIPS) (domain or fragment, UniProt Q96QV1-1 56-670, looked up)
chain: MSQLELLSGGEMLCGGFYPRLSCCLRSDSPGLGRLENKIFSVTNNTECGKLLEEIKCALCSPHSQSLFHSPEREVLERDLVLPLLCKDYCKEFFYTCRGHIPGFLQTTADEFCFYYARKDGGLCFPDFPRKQVAGPASNYLDQMEEYDKVEEISAAHKHNCFCIQEVVSGLRQPVGALHSGDGSQRLFILEKEGYVKILTPEGEIFKEPYLDIHKLVQSGIKGGDERGLLSLAFHPNYKKNGKLYVSYTTNQERWAIGPHDHILRVVEYTVSRKNPHQVDLRTARVFLEVAELHRKHLGGQLLFGPDGFLYIILGDGMITLDDMEEMDGLSDFTGSVLRLDVDTDMCNVPYSIPRSNPHFNSTNQPPEVFAHGLHDPGRCAVDRHPTDININLTILCSDSNGKNRSSARILQIIKGKDYESEPSLLEFKPFSNGPLVGGFVYRGCQSERLYGSYVFGDRNGNFLTLQQSPVTKQWQEKPLCLGTSGSCRGYFSGHILGFGEDELGEVYILSSSKSMTQTHNGKLYKIVDPKRPLMPEECRATVQPAQTLTSECSRLCRNGYCTPTGKCCCSPGWEGDFCRTAKCEPACRHGGVCVRPNKCLCKKGYLGPQCEQVD
modifications: enzymatically biotinylated within an engineered C-terminal tag (form attached to the SPR surface); fully glycosylated for MALS
  stoichiometry N: 2
